Results as given in patent US20030148377A1, “Binding compounds and methods for identifying binding compounds” (priority 2000, published 2003).

Assays:
ZAP-70 [1] = target: T1, ZAP-70 (Homo sapiens, UniProt P43403); test: Inhibition of tubulin phosphorylation by ZAP-70; format: biochemical; conditions: tubulin (5 μM) as substrate; FIG. 1D; compared to peptide 4
T1 construct: made in house; host or cells: Sf9 cells (baculovirus)
T1 sequence (P43403 1-619): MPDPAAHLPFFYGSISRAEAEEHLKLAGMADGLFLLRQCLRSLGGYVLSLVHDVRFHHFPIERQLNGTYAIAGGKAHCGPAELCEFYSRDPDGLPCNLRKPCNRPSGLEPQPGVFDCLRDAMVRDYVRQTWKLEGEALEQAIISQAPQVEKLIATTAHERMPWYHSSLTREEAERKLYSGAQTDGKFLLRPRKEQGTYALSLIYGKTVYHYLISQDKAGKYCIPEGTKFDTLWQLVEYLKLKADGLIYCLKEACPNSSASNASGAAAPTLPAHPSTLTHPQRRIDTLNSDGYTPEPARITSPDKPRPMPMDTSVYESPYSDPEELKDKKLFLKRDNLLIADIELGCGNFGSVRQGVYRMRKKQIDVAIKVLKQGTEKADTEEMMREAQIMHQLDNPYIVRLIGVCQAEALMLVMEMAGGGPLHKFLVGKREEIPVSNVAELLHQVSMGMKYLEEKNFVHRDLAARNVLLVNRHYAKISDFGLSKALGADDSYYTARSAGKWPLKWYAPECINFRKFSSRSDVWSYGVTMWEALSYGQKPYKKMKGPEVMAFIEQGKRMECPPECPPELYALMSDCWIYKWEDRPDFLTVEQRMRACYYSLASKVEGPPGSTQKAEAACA
Protocol: FIG. 1A: A glutathione-S-transferase chimera of ZAP-70 was purified from Sf9 cells and assayed for its ability to phosphorylate tubulin in the presence of 0, 50, or 100 μM of peptide 1 (SEQ ID NO: 5) or peptide 2 (SEQ ID NO: 6). The assay was carried out in kinase buffer (5 mM MnCl2, 5 mM MgCl2, 25 mM Tris [pH 7.4]), 50 μM ATP, and […] [γ-^32P]ATP for 5 min at 30° C. ^32P-phosphorylated tubulin was separated on SDS-PAGE, visualized by autoradiography (inset), and quantitated using a molecular imager (Bio-Rad).
FIG. 1D: The ZAP-70 Tyr-kinase assay was as described above, using tubulin (5 μM) as substrate. […]
(§1) Synthetic peptides, tubulin, or GST-band III (construct kindly provided by A. Weiss, University of California, San Francisco) (Zhao and Weiss, 1996) were phosphorylated by ZAP-70-GST-fused protein in the presence or absence of the indicated amount of inhibitory peptides in the kinase buffer (10 mM MnCl2, 50 mM Tris [pH 7.4], 1 mM DTT), 100 μM ATP, and 5 μCi [γ-^32P]ATP for 5 min (or 10 min for GST-band-III) at 30° C. The amount of radioactivity incorporated into substrate peptide was determined using the phosphocellulose assay. […] Phosphorylated tubulin, GST-band III, and myelin basic protein were separated on SDS-PAGE, visualized by autoradiography, and quantitated using a molecular imager (Bio-Rad, Hercules, Calif.).

Lck-GST-fused protein = target: T2, Lck-GST-fused protein (Homo sapiens, UniProt P06239); test: Inhibition of myelin basic protein phosphorylation by Lck; format: biochemical; conditions: myelin basic protein (5 μM) as substrate; FIG. 1E; compared to peptide 4
T2 construct: made in house; host or cells: Sf9 cells
Protocol: FIG. 1E: A glutathione-S-transferase chimera of Lck was purified from Sf9 cells and assayed for the ability to phosphorylate myelin basic protein (5 μM) in the presence or absence of the same three peptides as used in FIG. 1D. The assay was carried out for 5 min at 30° C.
as §1, with “assay. Lck-GST-fused protein was purified from Sf9 cells. Myelin basic protein was phosphorylated by Lck-GST-fused protein in the presence or absence of inhibitory peptides in the kinase buffer (5 mM MnCl2, 5 mM MgCl2, 25 mM Tris [pH 7.4]), 50 μM ATP, and 5 μCi [γ-^32P]ATP for 5 min at 30° C.” for “assay.”

ZAP-70 [2] = target: T1, ZAP-70; test: Inhibition of ZAP-70 phosphorylation of peptide 1 (phosphocellulose assay, Lineweaver-Burke plot); format: biochemical; conditions: peptide 1 as substrate; FIG. 1B; compared to peptide 4
Protocol: FIG. 1B: ZAP-70 was also assayed for its ability to phosphorylate peptide 1 (10 μM) in the presence of 0, 10, or 50 μM of peptide 4 (SEQ ID NO: 9) or peptide 5 (SEQ ID NO: 10). Peptide phosphorylation was determined by spotting the reaction mixture on phosphocellulose and washing away the ^32P-ATP with a phosphate buffer. The polylysine tail of peptide 1 facilitates retention on the phosphocellulose (Songyang et al., 1996). The data are presented as the percentage of the activity present in the absence of inhibitory peptides. […]
as §1

[3] = substrate: CC[C@H](C)[C@H](NC(=O)[C@H](CC(C)C)NC(=O)[C@@H](N)CCC(=O)O)C(=O)N[C@@H](CC(C)C)C(=O)N[C@@H](Cc1ccc(O)cc1)C(=O)N[C@@H](CC(C)C)C(=O)N[C@@H](CC(C)C)C(=O)N[C@@H](CC(C)C)C(=O)N[C@@H](CC(C)C)C(=O)N[C@@H](C)C(=O)N[C@@H](CCCCN)C(=O)N[C@@H](CCCCN)C(=O)N[C@@H](CCCCN)C(=O)O; test: Kinetic parameters for the phosphorylation of synthetic peptides by ZAP-70 (phosphocellulose assay); format: biochemical, Human; conditions: other: peptide as substrate, 100 μM ATP, 5 min at 30° C., average of three independent experiments
Protocol: (§2) Human ZAP-70-glutathione S-transferase (GST)-fused protein was expressed in Sf9 cells using baculovirus. In this study, we used GST-ZAP-70 expressed in Sf9 cells without coexpression of Lck for library screening and kinase assays because the substrate selectivity of partially activated ZAP-70 is higher than that of fully activated ZAP-70 in peptide library screening for their specific substrate motifs (unpublished results). ZAP-70-GST fused protein (600 μg) was purified by using glutathione-agarose beads. […]
as §1, with “Calif.). […]” for “Calif.).”

[4] = substrate: CC[C@H](C)[C@H](NC(=O)[C@H](CC(C)C)NC(=O)[C@@H](N)CCCCN)C(=O)N[C@@H](CC(C)C)C(=O)N[C@@H](Cc1ccc(O)cc1)C(=O)N[C@@H](CC(C)C)C(=O)N[C@@H](CC(C)C)C(=O)N[C@@H](CC(C)C)C(=O)N[C@@H](CC(C)C)C(=O)N[C@@H](C)C(=O)N[C@@H](CCCCN)C(=O)N[C@@H](CCCCN)C(=O)N[C@@H](CCCCN)C(=O)O; test: as above; format: biochemical, Human; conditions: other: peptide as substrate, 100 μM ATP, 5 min at 30° C., average of three independent experiments
Protocol: as §2
as §1, with “Calif.). […]” for “Calif.).”

[5] = target: T3, peptide 3 (ELILYLLLL AKKK)
T3 chain: ELILYLLLLAKKK

[6] = target: T4, peptide 2 (predicted optimal ZAP-70 binding peptide, KLILYLLLL AKKK)
T4 chain: KLILYLLLLAKKK

[7] = target: T5, peptide 1 (optimal ZAP-70 substrate, EEEEYFFII AKKK)
T5 chain: EEEEYFFIIAKKK

[8] = target: T6, Human ZAP-70-glutathione S-transferase (GST)-fused protein (human, UniProt P43403 1-619); test: comparison of ZAP-70 inhibition by peptide 4 and peptide 6, tubulin as substrate
T6 construct: the SH2 domains are spoken of as present; also called ZAP-70-GST fused protein; GST-ZAP-70; not shown: glutathione S-transferase (GST) fusion partner
T6 sequence (looked up): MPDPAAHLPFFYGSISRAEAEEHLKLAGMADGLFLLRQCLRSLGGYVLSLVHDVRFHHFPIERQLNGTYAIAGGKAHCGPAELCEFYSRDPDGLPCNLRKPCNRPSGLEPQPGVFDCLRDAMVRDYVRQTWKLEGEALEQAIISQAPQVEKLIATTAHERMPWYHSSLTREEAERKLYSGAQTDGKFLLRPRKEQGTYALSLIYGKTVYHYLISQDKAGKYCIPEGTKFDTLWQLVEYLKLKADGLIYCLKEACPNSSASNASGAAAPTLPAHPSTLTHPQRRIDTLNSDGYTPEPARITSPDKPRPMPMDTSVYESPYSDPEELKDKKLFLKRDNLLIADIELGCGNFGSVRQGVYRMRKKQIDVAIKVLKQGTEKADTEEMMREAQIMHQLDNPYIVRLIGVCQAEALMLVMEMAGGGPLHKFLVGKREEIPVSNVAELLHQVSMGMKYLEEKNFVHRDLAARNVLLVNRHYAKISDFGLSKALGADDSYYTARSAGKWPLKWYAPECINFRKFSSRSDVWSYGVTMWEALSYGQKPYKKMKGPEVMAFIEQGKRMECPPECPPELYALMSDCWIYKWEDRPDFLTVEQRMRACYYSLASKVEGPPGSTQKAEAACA

T2 sequence (P06239 whole entry, the tested form may be a part): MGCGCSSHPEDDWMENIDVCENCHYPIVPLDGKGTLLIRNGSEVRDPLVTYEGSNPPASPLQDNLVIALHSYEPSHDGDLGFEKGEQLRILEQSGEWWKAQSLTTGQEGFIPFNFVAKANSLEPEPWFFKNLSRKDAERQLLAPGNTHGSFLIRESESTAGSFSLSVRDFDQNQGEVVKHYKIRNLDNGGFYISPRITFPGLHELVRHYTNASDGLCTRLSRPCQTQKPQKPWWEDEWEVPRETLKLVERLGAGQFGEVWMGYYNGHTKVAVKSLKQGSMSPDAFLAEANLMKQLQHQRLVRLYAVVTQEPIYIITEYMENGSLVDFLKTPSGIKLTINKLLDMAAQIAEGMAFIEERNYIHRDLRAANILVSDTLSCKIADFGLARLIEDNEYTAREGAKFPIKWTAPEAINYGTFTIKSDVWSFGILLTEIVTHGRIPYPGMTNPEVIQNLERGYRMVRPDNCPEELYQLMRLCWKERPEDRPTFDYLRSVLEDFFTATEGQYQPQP

Molecule: KLILYLLLL [peptide 6, identical to peptide 4 except for Tyr replacing the Phe]
- ZAP-70 inhibitory effect (in words) (ZAP-70 [1]): little effect on peptide binding to ZAP-70

Molecule: peptide 5: peptide 4 with deletion of the Lys at position −4 (LILYLLLL)
- Lck inhibitory effect (in words) (Lck-GST-fused protein): less effective as an inhibitor of both kinases
- inhibitory ability on ZAP-70 (in words) (ZAP-70 [2]): dramatically reduced the inhibitory ability
- ZAP-70 inhibitory effect (in words) (ZAP-70 [1]): less effective as an inhibitor of both kinases

B1: ZAP-70-GST-fused protein (Homo sapiens) (protein)
chain: MPDPAAHLPFFYGSISRAEAEEHLKLAGMADGLFLLRQCLRSLGGYVLSLVHDVRFHHFPIERQLNGTYAIAGGKAHCGPAELCEFYSRDPDGLPCNLRKPCNRPSGLEPQPGVFDCLRDAMVRDYVRQTWKLEGEALEQAIISQAPQVEKLIATTAHERMPWYHSSLTREEAERKLYSGAQTDGKFLLRPRKEQGTYALSLIYGKTVYHYLISQDKAGKYCIPEGTKFDTLWQLVEYLKLKADGLIYCLKEACPNSSASNASGAAAPTLPAHPSTLTHPQRRIDTLNSDGYTPEPARITSPDKPRPMPMDTSVYESPYSDPEELKDKKLFLKRDNLLIADIELGCGNFGSVRQGVYRMRKKQIDVAIKVLKQGTEKADTEEMMREAQIMHQLDNPYIVRLIGVCQAEALMLVMEMAGGGPLHKFLVGKREEIPVSNVAELLHQVSMGMKYLEEKNFVHRDLAARNVLLVNRHYAKISDFGLSKALGADDSYYTARSAGKWPLKWYAPECINFRKFSSRSDVWSYGVTMWEALSYGQKPYKKMKGPEVMAFIEQGKRMECPPECPPELYALMSDCWIYKWEDRPDFLTVEQRMRACYYSLASKVEGPPGSTQKAEAACA
notes: made in house; host or cells: Sf9 cells (baculovirus)
- Km [3]: 188 µM
- Km [4]: 26 µM
- Km (µM) for phosphorylation of the synthetic peptide by ZAP-70 [5]: 188 µM
- Km relative to peptide 2 [5]: 7-fold higher Km than peptide 2
- Km (µM) for phosphorylation of the synthetic peptide by ZAP-70 [6]: 26 µM
- Km (µM) for phosphorylation of the synthetic peptide by ZAP-70 [7]: 40 µM

B2: peptide 6 (KLILYLLLL) (peptide)
peptide: KLILYLLLL
notes: Identical to peptide 4 except for Tyr replacing the Phe
- binding result [8]: binds
